% inhibition and IC50-based peak height data for nine molecules are collected here from US20190194280A1.

The term % inhibition denotes the relative decrease from the control value, in per cent. A low value points to a response near the control.

Sequences and labels used below:
B1: Aβ17-42 (Aβ or APP 770 (L688-A713)) (peptide)
peptide: LVFFAEDVGSNKGAIIGLMVGGVVIA
B2: Aβ-3-7 or APP 770 (V669-D678) (peptide)
peptide: VKMDAEFRHD
B3: Aβ-5-5 or APP 770 (S667-R676) (peptide)
peptide: SEVKMDAEFR
B4: Aβ5-14 or APP 770 (R676-H685) (peptide)
peptide: RHDSGYEVHH
B5: Aβ-8-2 or APP 770 (E664-A673) (peptide)
peptide: EEISEVKMDA
B6: Aβ-7-3 or APP 770 (E665-E674) (peptide)
peptide: EISEVKMDAE
B7: Aβ-4-6 or APP 770 (E668-H677) (peptide)
peptide: EVKMDAEFRH
B8: Aβ-6-4 or APP 770 (I666-F675) (peptide)
peptide: ISEVKMDAEF
B9: Aβ-9-1 or APP 770 (T663-D672) (peptide)
peptide: TEEISEVKMD

The first assay has as its target Immune sera of baboons immunized with UBI AD vaccine. The assay can be described thus: competitive inhibition ELISA. In general terms: ELISA stands for enzyme-linked immunosorbent assay.
B1 displayed a % inhibition at 0 µg/mL of 0%, a % inhibition at 0.25 µg/mL of 5%, a % inhibition at 0.5 µg/mL of 9% and a % inhibition at 1 µg/mL of 10%. For the same molecule, the % inhibition at 2 µg/mL worked out at 5%, the % inhibition at 8 µg/mL came to 0% and the % inhibition at 32 µg/mL was found to be 7%.

A further assay addresses Serum samples collected at week 16 from patients immunized with UBI AD vaccine (UB-311). As to the kind of experiment: comp. ELISA, serum P205.
As to B2, the IC50-based peak height was determined as 0.
Still for that read-out and setting: with B3 the figure was 0.
The same measure, in the same setting: with B4 the figure was 0; with B5, 0.
Same read-out and setting: with B6 the figure was 0.
Molecule B7 displayed an IC50-based peak height of 0.
Still for that read-out and setting: with B8 the figure was 0.
For the molecule B9, the IC50-based peak height came out at 0.

The target is the same in a further assay. As to the kind of experiment: comp. ELISA, serum P104.
Take B2: the IC50-based peak height was 0.
As to B3, the IC50-based peak height came to 0.
In turn, B4 had an IC50-based peak height of 0.
B5 yielded an IC50-based peak height of 0.
B6: the IC50-based peak height amounted to 0.
Molecule B7 displayed an IC50-based peak height of 0.
The same measure, in the same setting: with B8 the figure was 0; with B9, 0.

The next assay shares this target. The assay can be described thus: comp. ELISA, serum P106.
For the molecule B2, the IC50-based peak height came to 0.
Still for that read-out and setting: with B3 the figure was 0; with B4, 0.
For B5, the IC50-based peak height turned out to be 0.
Same read-out and setting: in the case of B6 it was 0; in that of B7, 0; in that of B8, 0.
Same read-out and setting: in the case of B9 it was 0.

For a further assay the target is unchanged. The assay can be described thus: comp. ELISA, serum P208.
For the molecule B2, the IC50-based peak height stood at 0.
On the same count and under the same terms, in the case of B3 it was 0.
On the same count and under the same terms, with B4 the figure was 0; with B5, 0; with B6, 0.
Still for that read-out and setting: in the case of B7 it was 0; in that of B8, 0; in that of B9, 0.

The target is the same in the next assay. The assay can be described thus: comp. ELISA, serum P107.
B2 showed an IC50-based peak height of 0.
The same measure, in the same setting: with B3 the figure was 0; with B4, 0; with B5, 0.
The molecule B6 registered an IC50-based peak height of 0.
Turning to B7, the IC50-based peak height came out at 0.
As to B8, the IC50-based peak height is 0.
Still for that read-out and setting: with B9 the figure was 0.

The target is the same in a further assay. As to the kind of experiment: comp. ELISA, serum P204.
B2 yielded an IC50-based peak height of 1.
Still for that read-out and setting: in the case of B3 it was 0.
The same measure, in the same setting: in the case of B4 it was 0; in that of B5, 0.
B6 returned an IC50-based peak height of 0.
For the molecule B7, the IC50-based peak height amounted to 0.
B8 gave an IC50-based peak height of 0.
The same measure, in the same setting: in the case of B9 it was 0.

The next assay shares this target. As to the kind of experiment: comp. ELISA, serum P206.
Take B2: the IC50-based peak height turned out to be 0.
Same read-out and setting: with B3 the figure was 0; with B4, 0.
On the same count and under the same terms, in the case of B5 it was 0; in that of B6, 0.
Consider B7, for which the IC50-based peak height was found to be 0.
The same measure, in the same setting: with B8 the figure was 0.
B9 had an IC50-based peak height of 0.

Another assay shares this target. The assay can be described thus: comp. ELISA, serum P210.
Turning to B2, the IC50-based peak height worked out at 13.
Same read-out and setting: with B3 the figure was 0.
On the same count and under the same terms, with B4 the figure was 0; with B5, 0; with B6, 0.
The same measure, in the same setting: with B7 the figure was 0; with B8, 0; with B9, 0.

For another assay the target is unchanged. The assay can be described thus: comp. ELISA, serum P103.
B2 came in with an IC50-based peak height of 0.
The same measure, in the same setting: with B3 the figure was 0; with B4, 0.
On to B5, for which the IC50-based peak height was found to be 0.
Same read-out and setting: with B6 the figure was 0; with B7, 0; with B8, 0.
The same measure, in the same setting: in the case of B9 it was 0.

For another assay the target is unchanged. The assay can be described thus: comp. ELISA, serum P102.
Molecule B2 came in with an IC50-based peak height of 0.
Regarding B3, the IC50-based peak height came to 0.
Same read-out and setting: with B4 the figure was 0; with B5, 0; with B6, 0.
Still for that read-out and setting: with B7 the figure was 0; with B8, 0.
Same read-out and setting: with B9 the figure was 0.

The target is the same in the next assay. As to the kind of experiment: comp. ELISA, serum P108.
In turn, B2 displayed an IC50-based peak height of 0.
On the same count and under the same terms, with B3 the figure was 0; with B4, 0.
In turn, B5 yielded an IC50-based peak height of 0.
The same measure, in the same setting: in the case of B6 it was 0.
The same measure, in the same setting: with B7 the figure was 0.
Same read-out and setting: with B8 the figure was 0; with B9, 0.

A further assay has the same target. As to the kind of experiment: comp. ELISA, serum P203.
B2: the IC50-based peak height was found to be 0.
Consider B3, for which the IC50-based peak height is 0.
The same measure, in the same setting: with B4 the figure was 0.
On the same count and under the same terms, in the case of B5 it was 0; in that of B6, 0.
Same read-out and setting: in the case of B7 it was 0; in that of B8, 0.
B9 registered an IC50-based peak height of 0.

For a further assay the target is unchanged. As to the kind of experiment: comp. ELISA, serum P109.
As for B2, the IC50-based peak height is 0.
Same read-out and setting: in the case of B3 it was 0; in that of B4, 0; in that of B5, 0.
As for B6, the IC50-based peak height is 0.
Still for that read-out and setting: in the case of B7 it was 0; in that of B8, 0; in that of B9, 0.

The next assay has the same target. The assay can be described thus: comp. ELISA, serum P101.
Molecule B2 registered an IC50-based peak height of 31.
Same read-out and setting: in the case of B3 it was 10.
Same read-out and setting: in the case of B4 it was 0; in that of B5, 0; in that of B6, 0.
Molecule B7 yielded an IC50-based peak height of 1.
On the same count and under the same terms, in the case of B8 it was 0.
On to B9, for which the IC50-based peak height is 0.

The target is the same in another assay. The assay can be described thus: comp. ELISA, serum P209.
Regarding B2, the IC50-based peak height stood at 0.
The same measure, in the same setting: in the case of B3 it was 0; in that of B4, 0; in that of B5, 0.
Same read-out and setting: with B6 the figure was 0; with B7, 0; with B8, 0.
On the same count and under the same terms, in the case of B9 it was 0.

For another assay the target is unchanged. As to the kind of experiment: comp. ELISA, serum P201.
B2 gave an IC50-based peak height of 0.
Same read-out and setting: with B3 the figure was 0; with B4, 0.
B5 registered an IC50-based peak height of 0.
As for B6, the IC50-based peak height came out at 0.
On the same count and under the same terms, with B7 the figure was 58; with B8, 0.
Still for that read-out and setting: with B9 the figure was 0.

The target is the same in the next assay. The assay can be described thus: comp. ELISA, serum P202.
As to B2, the IC50-based peak height stood at 0.
Same read-out and setting: with B3 the figure was 0; with B4, 0; with B5, 0.
On the same count and under the same terms, in the case of B6 it was 0; in that of B7, 0; in that of B8, 0.
Molecule B9 had an IC50-based peak height of 0.

Another assay shares this target. As to the kind of experiment: comp. ELISA, serum P105.
In turn, B2 displayed an IC50-based peak height of 0.
Regarding B3, the IC50-based peak height came out at 0.
Still for that read-out and setting: in the case of B4 it was 0.
Still for that read-out and setting: in the case of B5 it was 0.
As to B6, the IC50-based peak height is 0.
On the same count and under the same terms, with B7 the figure was 0; with B8, 0; with B9, 0.

A further assay has the same target. As to the kind of experiment: comp. ELISA, serum P207.
With B2, the IC50-based peak height was 0.
Still for that read-out and setting: in the case of B3 it was 0; in that of B4, 0.
Same read-out and setting: in the case of B5 it was 0.
The molecule B6 showed an IC50-based peak height of 0.
The same measure, in the same setting: in the case of B7 it was 1; in that of B8, 0.
B9 came in with an IC50-based peak height of 0.
